Where “and” joins values, the source holds several entries; their conditions need not be identical. Equal entries are not always repeated.

Data set [1] deals with αvβ3 integrin (Homo sapiens, UniProt P05106+P06756). Conditions: natural ligand and inhibitor; read-out: binding affinities of αvβ3 integrin; cited from earlier work.
In data set [2] the test system is CTX-I (carboxy-terminal collagen crosslinks). As to the kind of experiment: CTX-I serum ELISA in ovariectomized mice (bone resorption). Type of data set: in vivo, C57 Rcc mice. Further details: CTX-I serum-concentration: unit not given here. Conditions: 0.1 mg/kg. How it is done:
In order to assess the effect of M-CSF variant on bone resorption, 10 weeks old C57 Rcc mice were ovariectomized resulting in a decrease in estrogen secretion similar to what occurs in osteoporosis. Two weeks post-surgery the mice were treated with M-CSF5.6 variant in three concentrations-0.1 mg/kg, 0.5 mg/kg and 15 mg/kg, in order to test the effect on bone resorption and to find the optimal dosage. For a period of 4 days, 0.1 and 0.5 mg/kg M-CSF5.6 treated mice received subcutaneous injections twice a day, while 15 mg/kg M-CSF5.6 treated mice received a daily subcutaneous injection. Mice were sacrificed 18-24 hours after the final injection. The amounts of type I collagen fragments in the blood were measured using CTX-I (carboxy-terminal collagen crosslinks) ELISA.
Animals were randomly divided into 2 control groups (SHAM, PBS) and 4 treatment groups (0.1, 0.5 and 15 mg/kg M-CSF5.6 and 0.1 mg/kg Alendronate as positive control). Except for the SHAM group, all animals were ovariectomized. *, ^, + represent a Haemolytic-serum sample, an unsuccessful ovariectomy procedure (as determined post mortem) and an outlier, respectively. CTX-I serum-concentration values of mice with unsuccessful ovariectomy were excluded from the analysis.
For orientation: ELISA stands for enzyme-linked immunosorbent assay.

Data set [3] in a line: BS^3 chemical cross linking / SDS-PAGE dimerization assay. The class given is physicochemical. How it is done: Then, Tris was added to a final concentration of 30 mM and the mixture was incubated for 15 min at room temperature. Samples were denaturized and loaded on 15% SDS-PAGE. The gels were stained with coomassie blue (InstantBlue, Expedeon, CA, USA) and visualized with MiniBis pro (DNR Bio-Imaging Systems, Jerusalem, Israel).
BS^3 crosslinking assay—Human (4 μg) and murine M-CSFWT (1 μg), M-CSFC31S (1 μg) and M-CSFC31S,M27R (2.5 μg) were incubated with different concentrations of BS^3 [bis(sulfosuccinimidyl)suberate] (ThermoFisher Scientific, MA, USA) cross linker (0, 25 μM, 100 μM, 250 μM, 500 μM, 1000 μM and 2500 μM) for 30 min at room temperature. Then, […] was added to a final concentration of 30 mM, and the mixture was incubated for 15 min at room temperature. Samples were denaturized with sample buffer, boiled, and loaded on 15% SDS-PAGE for protein separation. The gels were stained with InstantBlue staining (Expedeon, CA, USA) for 40 min, followed by two washing steps with double distilled water. The gels were visualized with MiniBis pro (DNR Bio-Imaging Systems, Jerusalem, Israel).
Experiments were conducted in order to verify that the purified variants are incapable of dimerizing. The purified variants were incubated with a cross linker reagent (BS^3 [bis(sulfosuccinimidyl)suberate]) to enhance and visualize non-covalent intermolecular interactions. Following incubation, the reactions were stopped and the samples were loaded in denaturized conditions on a protein gel.
To validate the structural and computational analysis and to verify that M-CSFC31S,M27R is indeed a monomer, several biophysical assays were conducted. First, purified murine and human M-CSFWT, M-CSFC31S and M-CSFC31S,M27R were crosslinked via lysine residues using different amounts of BS^3 reagent [bis(sulfosuccinimidyl)suberate], and the proteins sizes were evaluated using SDS-PAGE (FIG. 16A). Murine M-CSFWT served as positive control, since it has a lysine in the dimerization site (K68), which facilitates the intermolecular cross-linking of the two monomers in the dimer. […] The dimer band became more prominent at higher BS^3 concentrations. It is likely that the non-covalent dimerization allows other lysines in M-CSFC31S to come into close proximity and crosslink.

The test system of data set [4] is mature osteoclasts. As to the kind of experiment: Actin ring formation in mature osteoclasts. Type of data set: cell-based, mouse. Particulars: inhibitors 5 μM added to mature osteoclasts for 24 h; F-actin staining. How it is done: FIG. 23 are example pictures showing Actin ring formation in mature osteoclasts incubated with M-CSFRGD variants. Murine BMMs were allowed to differentiate into osteoclasts in the presence of M-CSF and RANKL for 72 h. Then, the cells were incubated for additional 24 h without (positive control) or with inhibitors (5 μM) followed by fixation and staining for F-actin and nuclei. Cells were able to form a solid actin ring (white arrowheads), scattered actin ring (white arrows) or amorphous actin distribution (barbed arrowheads). Pictures are representatives of 35 images acquired from five different wells per sample.
For a mature osteoclast to resorb bone properly, it must form unique structure termed “sealing zone”; this structure consists of an actin ring made from a dense actin mesh connected by adhesion complexes called podosomes. The formation of the actin ring involves several stages: at the beginning, podosomes are formed throughout the cell in a scattered manner, then groups of podosomes form small actin structures named belts and upon osteoclast maturation, the belts are moving to the cell periphery, cluster, and form the actin ring. Podosomes contain high levels of αvβ3 integrin which is essential for the formation of a proper actin ring with condensed podosome network. […]

Data set [5] has as its target human c-FMS (Homo sapiens, UniProt P07333). Particulars: previously disclosed (Elegheert et al. 2012); read-out: KD of M-CSF to c-FMS receptor; cited from earlier work.

Sequence of αvβ3 integrin (P06756 31-1048): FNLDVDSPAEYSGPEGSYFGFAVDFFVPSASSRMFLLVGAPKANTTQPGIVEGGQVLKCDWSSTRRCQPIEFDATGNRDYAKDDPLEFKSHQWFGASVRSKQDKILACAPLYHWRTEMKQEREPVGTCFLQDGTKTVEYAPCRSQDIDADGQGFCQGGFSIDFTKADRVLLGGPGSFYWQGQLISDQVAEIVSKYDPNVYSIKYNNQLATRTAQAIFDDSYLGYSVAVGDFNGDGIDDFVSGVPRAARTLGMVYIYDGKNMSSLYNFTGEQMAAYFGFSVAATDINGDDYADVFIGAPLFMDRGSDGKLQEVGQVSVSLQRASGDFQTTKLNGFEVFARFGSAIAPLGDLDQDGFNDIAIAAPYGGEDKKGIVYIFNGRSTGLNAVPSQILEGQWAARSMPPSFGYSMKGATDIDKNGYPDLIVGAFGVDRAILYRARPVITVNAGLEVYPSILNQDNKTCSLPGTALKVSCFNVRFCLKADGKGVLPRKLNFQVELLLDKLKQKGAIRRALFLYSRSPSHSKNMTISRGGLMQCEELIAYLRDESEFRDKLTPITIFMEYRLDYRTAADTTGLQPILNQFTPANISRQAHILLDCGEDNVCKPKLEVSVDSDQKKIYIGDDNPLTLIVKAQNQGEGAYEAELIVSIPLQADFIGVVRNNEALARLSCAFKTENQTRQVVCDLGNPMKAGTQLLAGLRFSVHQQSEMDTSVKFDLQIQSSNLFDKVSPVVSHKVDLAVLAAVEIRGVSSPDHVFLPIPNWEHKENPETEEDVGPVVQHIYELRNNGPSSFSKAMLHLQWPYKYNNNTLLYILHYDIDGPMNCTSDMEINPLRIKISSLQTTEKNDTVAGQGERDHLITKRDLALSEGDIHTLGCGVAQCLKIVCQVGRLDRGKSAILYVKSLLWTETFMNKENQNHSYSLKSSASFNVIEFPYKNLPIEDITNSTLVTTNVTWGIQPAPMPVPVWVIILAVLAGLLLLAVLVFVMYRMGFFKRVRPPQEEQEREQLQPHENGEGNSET
Sequence of αvβ3 integrin (P05106 27-788): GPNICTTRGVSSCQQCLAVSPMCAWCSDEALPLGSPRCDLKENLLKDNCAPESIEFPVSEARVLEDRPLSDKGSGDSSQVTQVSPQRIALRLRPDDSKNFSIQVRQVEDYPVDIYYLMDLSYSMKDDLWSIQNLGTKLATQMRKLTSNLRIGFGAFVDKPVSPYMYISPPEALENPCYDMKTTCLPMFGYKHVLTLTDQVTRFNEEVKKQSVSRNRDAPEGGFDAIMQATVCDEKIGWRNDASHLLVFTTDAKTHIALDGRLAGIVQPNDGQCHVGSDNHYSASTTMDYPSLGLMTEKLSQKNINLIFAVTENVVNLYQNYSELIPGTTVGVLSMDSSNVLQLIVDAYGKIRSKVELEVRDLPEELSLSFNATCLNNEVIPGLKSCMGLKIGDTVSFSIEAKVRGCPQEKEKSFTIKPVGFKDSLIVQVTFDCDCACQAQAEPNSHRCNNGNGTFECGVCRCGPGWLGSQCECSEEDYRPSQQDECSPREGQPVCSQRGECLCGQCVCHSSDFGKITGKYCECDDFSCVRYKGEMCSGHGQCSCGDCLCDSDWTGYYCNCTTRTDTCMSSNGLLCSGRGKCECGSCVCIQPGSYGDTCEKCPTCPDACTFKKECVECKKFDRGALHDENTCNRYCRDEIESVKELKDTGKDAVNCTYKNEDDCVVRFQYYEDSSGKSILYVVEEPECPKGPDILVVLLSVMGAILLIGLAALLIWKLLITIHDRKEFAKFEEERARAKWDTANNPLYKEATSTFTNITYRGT
Sequence of human c-FMS (P07333 20-972): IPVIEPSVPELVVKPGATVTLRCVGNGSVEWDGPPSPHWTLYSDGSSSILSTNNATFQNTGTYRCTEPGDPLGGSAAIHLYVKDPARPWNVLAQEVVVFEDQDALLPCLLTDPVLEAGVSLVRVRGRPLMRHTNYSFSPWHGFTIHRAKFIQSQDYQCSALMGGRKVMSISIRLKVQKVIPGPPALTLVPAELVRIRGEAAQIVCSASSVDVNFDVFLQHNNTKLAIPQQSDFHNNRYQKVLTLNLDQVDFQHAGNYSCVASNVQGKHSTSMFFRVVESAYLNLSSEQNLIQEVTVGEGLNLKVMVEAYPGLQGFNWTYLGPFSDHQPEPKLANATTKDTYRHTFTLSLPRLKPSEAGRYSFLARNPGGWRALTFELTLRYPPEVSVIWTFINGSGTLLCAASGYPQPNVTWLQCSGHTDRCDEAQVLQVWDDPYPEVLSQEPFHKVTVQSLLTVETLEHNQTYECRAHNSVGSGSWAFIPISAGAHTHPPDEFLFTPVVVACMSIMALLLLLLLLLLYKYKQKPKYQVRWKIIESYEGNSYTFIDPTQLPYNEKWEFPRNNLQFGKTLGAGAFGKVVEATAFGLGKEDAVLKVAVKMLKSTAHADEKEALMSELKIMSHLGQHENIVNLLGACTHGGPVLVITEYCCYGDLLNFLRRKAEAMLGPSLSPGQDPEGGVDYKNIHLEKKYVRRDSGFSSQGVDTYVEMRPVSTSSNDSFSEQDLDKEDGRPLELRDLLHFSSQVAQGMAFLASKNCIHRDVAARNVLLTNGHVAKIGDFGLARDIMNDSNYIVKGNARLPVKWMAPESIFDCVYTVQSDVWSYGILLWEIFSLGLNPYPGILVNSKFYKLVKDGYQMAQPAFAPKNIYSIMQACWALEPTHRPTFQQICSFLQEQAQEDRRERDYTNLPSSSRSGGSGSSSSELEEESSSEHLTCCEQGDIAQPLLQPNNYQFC

For the molecule “vitronectin: one of the ligands of αvβ3 integrin”, the Kd in data set [1] was 40.7 nM. With cRGDfV [reference compound], in data set [1], the Kd is 158 nM.

In the case of `NCCCC(O)(P(=O)(O)O)P(=O)(O)O` [Alendronate, reference compound], the “change in CTX-I levels compared to the PBS treated animals” value in data set [2] is recorded as “significant decrease in CTX-I levels”. In addition, the CTX-I serum-concentration in data set [2] (individual animals n 1-6, * haemolytic sample) was 25.4 and 20.03* and 18.21* and 27.86* and 19.1 and 20.9.

B1: M-CSFαvβ3: variant 4.22 with histidine to alanine mutations at positions 9 and 15; binds αvβ3 integrin but not c-FMS (protein)
chain: EEVSEYCSAMIGSGALQSLQRLIDQTSRGDSPSITFEFVDQEQLKDPVCYLKKAFLLVQDIMEDTMRFRDNTPNAIAIVQLQELSLRLKSCFTKDYEEHDKACVRTFYETPLQLLEKVKNVFNETKNLLDKDWNIFSKNCNNSFAECSSQGHERQSEGS
modifications: left off: small tags and cut ends
In the case of B1, the “dimerization after BS^3 cross linking” value in data set [3] (Example 4, BS^3 up to 2500 μM, FIG. 8) is “did not show any dimerization”. In addition, the actin ring formation result in data set [4] was “decreased the condensation and density of podosomes”.

B2: murine M-CSFWT: wild-type murine M-CSF, positive control in cross-linking (protein)
chain: KEVSEHCSHMIGNGHLKVLQQLIDSQMETSCQIAFEFVDQEQLDDPVCYLKKAFFLVQDIIDETMRFKDNTPNANATERLQELSNNLNSCFTKDYEEQNKACVRTFHETPLQLLEKIKNFFNETKNLLEKDWNIFTKNCNNSFAKCSSRDVVTKPDCNCLYPKATPSSDPASASPHQPPAPSMAPLAGLAWDDSQRTEGSSLLPSELPLRIEDPGSAKQRPPR
As to B2, the “monomer/dimer bands after BS^3 cross linking” value in data set [3] (Example 11, BS^3 0-2500 μM, SDS-PAGE, FIG. 16A) was “almost entirely in a band with a molecular weight that fits the dimer size”.

B3: M-CSF: native monocyte/macrophage colony stimulating factor, natural ligand of c-FMS (Uniprot P09603) (protein, UniProt P09603 33-554, looked up)
Macrophage colony-stimulating …: EEVSEYCSHMIGSGHLQSLQRLIDSQMETSCQITFEFVDQEQLKDPVCYLKKAFLLVQDIMEDTMRFRDNTPNAIAIVQLQELSLRLKSCFTKDYEEHDKACVRTFYETPLQLLEKVKNVFNETKNLLDKDWNIFSKNCNNSFAECSSQDVVTKPDCNCLYPKAIPSSDPASVSPHQPLAPSMAPVAGLTWEDSEGTEGSSLLPGEQPLHTVDPGSAKQRPPRSTCQSFEPPETPVVKDSTIGGSPQPRPSVGAFNPGMEDILDSAMGTNWVPEEASGEASEIPVPQGTELSPSRPGGGSMQTEPARPSNFLSASSPLPASAKGQQPADVTGTALPRVGPVRPTGQDWNHTPQKTDHPSALLRDPPEPGSPRISSLRPQGLSNPSTLSAQPQLSRSHSSGSVLPLGELEGRRSTRDRRSPAEPEGGPASEGAARPLPRFNSVPLTDTGHERQSEGSFSPQLQESVFHLLVPSVILVLLAVGGLLFYRWRRRSHQEPQRADSPLEQPEGSPLTQDDRQVELPV
For B3, in data set [5], the Kd is 13.6 nM.
